Experimental data taken from publication PMC5609712 (Molecular cell, 2017).
Blank lines part the entries; values can stand above or below the binder they belong to.

B3: Exonuclease 1, biotinylated, full length (enzyme, human, UniProt Q9UQ84 1-846, looked up)
chain: MGIQGLLQFIKEASEPIHVRKYKGQVVAVDTYCWLHKGAIACAEKLAKGEPTDRYVGFCMKFVNMLLSHGIKPILVFDGCTLPSKKEVERSRRERRQANLLKGKQLLREGKVSEARECFTRSINITHAMAHKVIKAARSQGVDCLVAPYEADAQLAYLNKAGIVQAIITEDSDLLAFGCKKVILKMDQFGNGLEIDQARLGMCRQLGDVFTEEKFRYMCILSGCDYLSSLRGIGLAKACKVLRLANNPDIVKVIKKIGHYLKMNITVPEDYINGFIRANNTFLYQLVFDPIKRKLIPLNAYEDDVDPETLSYAGQYVDDSIALQIALGNKDINTFEQIDDYNPDTAMPAHSRSHSWDDKTCQKSANVSSIWHRNYSPRPESGTVSDAPQLKENPSTVGVERVISTKGLNLPRKSSIVKRPRSAELSEDDLLSQYSLSFTKKTKKNSSEGNKSLSFSEVFVPDLVNGPTNKKSVSTPPRTRNKFATFLQRKNEESGAVVVPGTRSRFFCSSDSTDCVSNKVSIQPLDETAVTDKENNLHESEYGDQEGKRLVDTDVARNSSDDIPNNHIPGDHIPDKATVFTDEESYSFESSKFTRTISPPTLGTLRSCFSWSGGLGDFSRTPSPSPSTALQQFRRKSDSPTSLPENNMSDVSQLKSEESSDDESHPLREEACSSQSQESGEFSLQSSNASKLSQCSSKDSDSEESDCNIKLLDSQSDQTSKLRLSHFSKKDTPLRNKVPGLYKSSSADSLSTTKIKPLGPARASGLSKKPASIQKRKHHNAENKPGLQIKLNELWKNFGFKKDSEKLPPCKKPLSPVRDNIQLTPEAEEDIFNKPECGRVQRAIFQ
modifications: biotinylated (co-infected with a BirA virus)

How the values were obtained:
Assay in all cases: pull-down
[1] = target: B3
[2] = target: T1, Mre11, flag-tagged, purified alone (human, UniProt P49959 1-708)
T1 sequence (looked up): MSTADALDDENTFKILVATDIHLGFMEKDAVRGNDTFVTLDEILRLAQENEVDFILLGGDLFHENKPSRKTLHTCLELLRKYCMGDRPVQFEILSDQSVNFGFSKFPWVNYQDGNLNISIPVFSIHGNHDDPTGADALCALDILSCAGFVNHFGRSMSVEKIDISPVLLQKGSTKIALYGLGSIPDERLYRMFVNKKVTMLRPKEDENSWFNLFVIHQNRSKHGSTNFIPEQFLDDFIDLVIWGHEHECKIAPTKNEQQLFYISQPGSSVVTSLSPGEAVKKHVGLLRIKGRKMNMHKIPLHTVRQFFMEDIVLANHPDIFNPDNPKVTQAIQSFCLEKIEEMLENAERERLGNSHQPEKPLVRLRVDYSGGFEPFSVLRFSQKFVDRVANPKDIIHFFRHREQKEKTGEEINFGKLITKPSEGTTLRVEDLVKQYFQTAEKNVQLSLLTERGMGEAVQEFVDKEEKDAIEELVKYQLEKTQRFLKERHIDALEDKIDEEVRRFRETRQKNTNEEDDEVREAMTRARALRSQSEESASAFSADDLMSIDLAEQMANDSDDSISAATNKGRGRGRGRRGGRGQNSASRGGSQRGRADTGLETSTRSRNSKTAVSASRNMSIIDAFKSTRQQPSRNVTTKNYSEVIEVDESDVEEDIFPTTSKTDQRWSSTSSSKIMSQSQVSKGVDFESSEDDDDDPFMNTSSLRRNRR

[3] = target: Mre11-Rad50-Nbs1 complex (triple flag on Mre11) (human, UniProt P49959 1-708; Q92878 1-1312; O60934 1-754)
Mre11-Rad50-Nbs1 complex (triple flag on Mre11), sequence (Q92878 whole entry, one chain of several): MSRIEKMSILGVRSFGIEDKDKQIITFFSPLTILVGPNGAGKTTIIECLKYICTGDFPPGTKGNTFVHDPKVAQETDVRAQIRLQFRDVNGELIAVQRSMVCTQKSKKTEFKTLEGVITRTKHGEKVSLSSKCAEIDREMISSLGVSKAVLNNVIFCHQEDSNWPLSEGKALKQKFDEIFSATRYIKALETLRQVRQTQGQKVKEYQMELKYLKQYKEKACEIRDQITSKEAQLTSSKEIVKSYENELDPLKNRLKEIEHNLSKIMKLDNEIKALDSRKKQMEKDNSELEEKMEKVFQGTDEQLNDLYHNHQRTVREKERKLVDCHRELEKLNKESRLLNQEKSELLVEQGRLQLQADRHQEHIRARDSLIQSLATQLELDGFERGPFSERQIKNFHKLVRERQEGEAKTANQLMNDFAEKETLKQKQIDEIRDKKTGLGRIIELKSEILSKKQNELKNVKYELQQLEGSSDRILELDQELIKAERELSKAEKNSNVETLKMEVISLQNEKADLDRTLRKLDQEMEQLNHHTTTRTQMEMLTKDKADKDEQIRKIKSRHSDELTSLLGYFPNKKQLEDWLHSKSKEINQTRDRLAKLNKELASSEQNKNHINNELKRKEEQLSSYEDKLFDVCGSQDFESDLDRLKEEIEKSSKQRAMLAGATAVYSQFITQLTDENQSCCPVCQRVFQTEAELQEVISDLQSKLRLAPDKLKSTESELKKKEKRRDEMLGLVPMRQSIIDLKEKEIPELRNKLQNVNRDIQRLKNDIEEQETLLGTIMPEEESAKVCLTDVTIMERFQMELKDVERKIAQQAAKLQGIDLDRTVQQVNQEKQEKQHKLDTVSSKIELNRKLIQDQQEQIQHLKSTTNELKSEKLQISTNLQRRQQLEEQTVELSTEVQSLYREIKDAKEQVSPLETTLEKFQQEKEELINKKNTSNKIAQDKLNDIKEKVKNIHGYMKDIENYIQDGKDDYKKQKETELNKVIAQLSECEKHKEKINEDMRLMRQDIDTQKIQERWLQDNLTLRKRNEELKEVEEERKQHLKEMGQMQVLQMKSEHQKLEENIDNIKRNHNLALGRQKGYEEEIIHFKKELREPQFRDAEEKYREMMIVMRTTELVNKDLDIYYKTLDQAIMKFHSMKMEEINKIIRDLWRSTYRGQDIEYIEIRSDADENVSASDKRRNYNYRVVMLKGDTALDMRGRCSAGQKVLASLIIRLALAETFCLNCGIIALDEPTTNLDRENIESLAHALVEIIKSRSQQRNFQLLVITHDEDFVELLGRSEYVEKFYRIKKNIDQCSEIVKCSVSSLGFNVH

- binding result [1]: binds
B1: Nbs1, flag-tagged, purified alone (natural protein, human, UniProt O60934 1-754, looked up)
chain: MWKLLPAAGPAGGEPYRLLTGVEYVVGRKNCAILIENDQSISRNHAVLTANFSVTNLSQTDEIPVLTLKDNSKYGTFVNEEKMQNGFSRTLKSGDGITFGVFGSKFRIEYEPLVACSSCLDVSGKTALNQAILQLGGFTVNNWTEECTHLVMVSVKVTIKTICALICGRPIVKPEYFTEFLKAVESKKQPPQIESFYPPLDEPSIGSKNVDLSGRQERKQIFKGKTFIFLNAKQHKKLSSAVVFGGGEARLITEENEEEHNFFLAPGTCVVDTGITNSQTLIPDCQKKWIQSIMDMLQRQGLRPIPEAEIGLAVIFMTTKNYCDPQGHPSTGLKTTTPGPSLSQGVSVDEKLMPSAPVNTTTYVADTESEQADTWDLSERPKEIKVSKMEQKFRMLSQDAPTVKESCKTSSNNNSMVSNTLAKMRIPNYQLSPTKLPSINKSKDRASQQQQTNSIRNYFQPSTKKRERDEENQEMSSCKSARIETSCSLLEQTQPATPSLWKNKEQHLSENEPVDTNSDNNLFTDTDLKSIVKNSASKSHAAEKLRSNKKREMDDVAIEDEVLEQLFKDTKPELEIDVKVQKQEEDVNVRKRPRMDIETNDTFSDEAVPESSKISQENEIGKKRELKEDSLWSAKEISNNDKLQDDSEMLPKKLLLTEFRSLVIKNSTSRNPSGINDDYGQLKNFKKFKKVTYPGAGKLPHIIGGSDLIAHHARKNTELEEWLRQEMEVQNQHAKEESLADDLFRYNPYLKRRR

- binding result [2]: binds
B2: Exo1(NTD), catalytic Exo1 core, N-terminal domain encoding amino acids 1-352, biotinylated (domain or fragment, human, UniProt Q9UQ84 1-352, looked up)
chain: MGIQGLLQFIKEASEPIHVRKYKGQVVAVDTYCWLHKGAIACAEKLAKGEPTDRYVGFCMKFVNMLLSHGIKPILVFDGCTLPSKKEVERSRRERRQANLLKGKQLLREGKVSEARECFTRSINITHAMAHKVIKAARSQGVDCLVAPYEADAQLAYLNKAGIVQAIITEDSDLLAFGCKKVILKMDQFGNGLEIDQARLGMCRQLGDVFTEEKFRYMCILSGCDYLSSLRGIGLAKACKVLRLANNPDIVKVIKKIGHYLKMNITVPEDYINGFIRANNTFLYQLVFDPIKRKLIPLNAYEDDVDPETLSYAGQYVDDSIALQIALGNKDINTFEQIDDYNPDTAMPAHSR

Binder: B3
- binding result [3]: binds
